Bounds are passed on as bounds.

For two substances, binding signal (fold enrichment) results are on record in patent US20090018059.

Data set [1] addresses Oct4 (Pou5f1) (Mus musculus) (UniProt P20263). Particulars: ChIP-qPCR, undifferentiated mouse ESCs; 10-fold maximum after 3 days RA, none at 6 days.
For another data set, the target named is Sox2 (Mus musculus) (UniProt P48432). Particulars: ChIP-qPCR, undifferentiated mouse ESCs; 10-fold maximum after 3 days RA, none at 6 days. (In qPCR the cycle at which signal appears reflects the starting amount.)
The test system of a further data set is SOX2 (Homo sapiens). To be noted: ChIP-qPCR, human HUES-6 ESCs.
The next data set relates to OCT4 (Homo sapiens). Particulars: ChIP-qPCR, human HUES-6 ESCs.

Chain of Oct4 (Pou5f1) (Mus musculus) (P20263 whole entry): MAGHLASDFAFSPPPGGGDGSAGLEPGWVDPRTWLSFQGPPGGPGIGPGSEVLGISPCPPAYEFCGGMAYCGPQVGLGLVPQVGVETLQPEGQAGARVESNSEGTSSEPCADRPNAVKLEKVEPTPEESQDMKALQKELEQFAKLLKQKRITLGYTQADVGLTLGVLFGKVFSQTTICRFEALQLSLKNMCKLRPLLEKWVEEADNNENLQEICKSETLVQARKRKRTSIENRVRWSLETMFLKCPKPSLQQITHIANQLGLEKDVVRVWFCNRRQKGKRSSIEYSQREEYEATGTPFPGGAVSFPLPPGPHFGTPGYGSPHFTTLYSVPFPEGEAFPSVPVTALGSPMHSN
Chain of Sox2 (Mus musculus) (P48432 whole entry): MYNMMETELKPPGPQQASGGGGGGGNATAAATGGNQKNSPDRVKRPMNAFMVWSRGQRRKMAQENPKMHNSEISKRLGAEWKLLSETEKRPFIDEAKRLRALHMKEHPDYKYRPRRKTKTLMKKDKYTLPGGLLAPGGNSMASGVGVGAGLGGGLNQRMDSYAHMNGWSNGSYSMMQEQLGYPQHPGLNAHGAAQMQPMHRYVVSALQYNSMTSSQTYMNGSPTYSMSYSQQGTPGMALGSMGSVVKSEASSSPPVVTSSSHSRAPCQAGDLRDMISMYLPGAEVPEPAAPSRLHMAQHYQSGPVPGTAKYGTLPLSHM

Take “mouse Nanog promoter oct-sox region (ChIP amplicon 2)”: the binding signal (fold enrichment) in data set [1] is below 43; with Sox2 (Mus musculus), below 37.

Take human NANOG promoter sox-oct region: the binding signal (fold enrichment) in the data set on SOX2 (Homo sapiens) and with OCT4 (Homo sapiens) was 6 in each case.
